Experimental data reported in US20230227508A1, “SPLIT INTEIN-BASED SELECTION FOR PEPTIDE BINDERS” (priority 2020, published 2023).

Biological target: Expi293F human cell-derived and purified SARS-CoV-2 RBD (RBD296-531) (SARS-CoV-2), P0DTC2

Kd: 990 nM
Binder: GVCKYGEWCEIVEI (modifications not checked) [AMK-1057 (purified, PapB-modified 14 aa thioether-cyclized peptide)]
